Test results reported in US20220332804A1 (CSL INNOVATION, published 2022).

Key:
Experiment in all cases: SPR; KD relative to WT C2;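 note: biacore SPR at 37 °C, anti-C2 mAbs captured on an anti-human IgG chip, alanine or serine C2 surface mutants tested, KD from 1:1 fit compared with wild-type C2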
[1] = biological target: T1, human C2 K329A (human, UniProt P06681 21-752)
T1 sequence: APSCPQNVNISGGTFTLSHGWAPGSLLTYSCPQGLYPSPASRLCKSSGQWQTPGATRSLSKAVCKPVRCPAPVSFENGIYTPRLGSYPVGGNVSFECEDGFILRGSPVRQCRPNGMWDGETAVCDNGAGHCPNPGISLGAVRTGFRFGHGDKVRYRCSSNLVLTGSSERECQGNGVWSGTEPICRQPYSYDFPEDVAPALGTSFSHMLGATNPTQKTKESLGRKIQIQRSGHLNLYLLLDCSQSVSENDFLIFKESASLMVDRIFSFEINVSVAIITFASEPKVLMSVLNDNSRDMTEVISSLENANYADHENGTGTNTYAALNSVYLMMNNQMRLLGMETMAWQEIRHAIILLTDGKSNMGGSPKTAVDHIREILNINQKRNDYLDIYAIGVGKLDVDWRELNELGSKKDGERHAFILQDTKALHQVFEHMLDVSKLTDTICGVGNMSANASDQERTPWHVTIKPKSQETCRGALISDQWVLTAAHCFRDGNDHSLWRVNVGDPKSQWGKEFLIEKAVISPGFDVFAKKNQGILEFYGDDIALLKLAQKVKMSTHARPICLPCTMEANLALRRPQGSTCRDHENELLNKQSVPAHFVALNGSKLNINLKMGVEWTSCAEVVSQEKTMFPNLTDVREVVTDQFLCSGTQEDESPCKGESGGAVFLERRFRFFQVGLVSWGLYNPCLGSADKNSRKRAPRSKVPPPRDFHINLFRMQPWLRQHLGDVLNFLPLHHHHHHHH

[2] = biological target: T2, human C2 K430A (human, UniProt P06681 21-752)
T2 sequence: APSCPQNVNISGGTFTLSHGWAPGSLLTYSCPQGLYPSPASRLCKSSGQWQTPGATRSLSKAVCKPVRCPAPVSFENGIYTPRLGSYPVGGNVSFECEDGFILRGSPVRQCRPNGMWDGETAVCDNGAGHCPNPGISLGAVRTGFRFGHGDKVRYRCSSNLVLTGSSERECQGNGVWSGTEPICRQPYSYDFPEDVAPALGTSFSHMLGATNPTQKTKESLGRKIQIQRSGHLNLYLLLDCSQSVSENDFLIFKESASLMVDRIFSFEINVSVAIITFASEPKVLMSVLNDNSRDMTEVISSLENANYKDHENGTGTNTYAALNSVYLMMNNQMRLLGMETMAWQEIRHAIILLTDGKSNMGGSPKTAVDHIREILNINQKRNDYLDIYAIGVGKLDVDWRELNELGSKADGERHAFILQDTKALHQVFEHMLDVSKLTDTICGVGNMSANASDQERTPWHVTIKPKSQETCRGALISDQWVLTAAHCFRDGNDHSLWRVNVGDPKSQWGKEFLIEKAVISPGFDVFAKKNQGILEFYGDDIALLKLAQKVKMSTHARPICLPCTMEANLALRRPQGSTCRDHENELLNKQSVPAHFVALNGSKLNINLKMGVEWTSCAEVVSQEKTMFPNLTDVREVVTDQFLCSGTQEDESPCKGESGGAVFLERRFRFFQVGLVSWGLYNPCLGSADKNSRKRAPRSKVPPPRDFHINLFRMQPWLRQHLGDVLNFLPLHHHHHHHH

[3] = biological target: T3, human C2 I438A (human, UniProt P06681 21-752)
T3 sequence: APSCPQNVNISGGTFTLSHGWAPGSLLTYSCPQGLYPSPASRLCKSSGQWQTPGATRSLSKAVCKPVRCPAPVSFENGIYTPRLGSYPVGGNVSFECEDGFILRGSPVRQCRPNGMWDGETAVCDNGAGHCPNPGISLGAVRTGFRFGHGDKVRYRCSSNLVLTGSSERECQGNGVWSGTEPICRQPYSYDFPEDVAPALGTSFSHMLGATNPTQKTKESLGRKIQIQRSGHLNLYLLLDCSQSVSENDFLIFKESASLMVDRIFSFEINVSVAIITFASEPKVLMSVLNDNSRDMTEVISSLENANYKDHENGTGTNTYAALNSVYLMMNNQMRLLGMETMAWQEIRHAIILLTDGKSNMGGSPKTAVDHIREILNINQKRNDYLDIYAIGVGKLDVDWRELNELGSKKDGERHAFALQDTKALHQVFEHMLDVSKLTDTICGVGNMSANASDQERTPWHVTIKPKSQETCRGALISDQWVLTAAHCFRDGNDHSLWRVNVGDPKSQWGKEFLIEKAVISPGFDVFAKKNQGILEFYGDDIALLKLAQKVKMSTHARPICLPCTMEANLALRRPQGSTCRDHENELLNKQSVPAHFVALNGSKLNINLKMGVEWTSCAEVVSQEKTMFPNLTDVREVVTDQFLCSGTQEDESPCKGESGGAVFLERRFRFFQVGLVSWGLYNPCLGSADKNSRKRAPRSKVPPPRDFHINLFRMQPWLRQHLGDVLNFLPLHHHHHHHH

[4] = biological target: T4, human C2 E450A (human, UniProt P06681 21-752)
T4 sequence: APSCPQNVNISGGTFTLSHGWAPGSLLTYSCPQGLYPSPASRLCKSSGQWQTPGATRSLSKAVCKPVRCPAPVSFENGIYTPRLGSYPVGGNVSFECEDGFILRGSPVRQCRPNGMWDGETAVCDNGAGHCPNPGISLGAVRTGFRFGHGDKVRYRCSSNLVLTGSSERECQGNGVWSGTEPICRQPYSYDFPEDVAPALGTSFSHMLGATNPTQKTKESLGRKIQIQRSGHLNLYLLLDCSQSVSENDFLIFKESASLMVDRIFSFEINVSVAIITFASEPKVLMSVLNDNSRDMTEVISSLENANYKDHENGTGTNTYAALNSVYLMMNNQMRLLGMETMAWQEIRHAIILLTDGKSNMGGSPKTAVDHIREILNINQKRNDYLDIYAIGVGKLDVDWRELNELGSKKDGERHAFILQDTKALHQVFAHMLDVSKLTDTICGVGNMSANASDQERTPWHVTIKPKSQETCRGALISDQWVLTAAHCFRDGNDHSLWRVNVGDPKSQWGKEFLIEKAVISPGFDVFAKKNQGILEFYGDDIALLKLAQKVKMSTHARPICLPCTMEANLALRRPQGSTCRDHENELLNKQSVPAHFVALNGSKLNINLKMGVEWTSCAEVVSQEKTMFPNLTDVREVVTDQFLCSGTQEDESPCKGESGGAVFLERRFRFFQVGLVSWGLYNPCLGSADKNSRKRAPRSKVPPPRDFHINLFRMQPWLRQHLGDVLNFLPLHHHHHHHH

- Fold diff [1]: 2 fold
- Fold diff [2]: 10 fold
- Fold diff [3]: 1 fold
- Fold diff [4]: 20 fold
B1: RF16-214 (antibody, V domains shown)
VH: EVQLLESGGGLVQPGGSLRLSCAASGFTFSWYQMMWVRQAPGKGLEWVSRIYPSGGGTAYADSVKGRFTISRDNSKNTLYLQMNSLRAEDTAVYYCARDAGYGDNWGQGTLVTVSS
VL: QSALTQPPSVSVSPGQTASITCSGDKLGEKYASWYQQKAGQSPVMVIYQDRKRPSGIPERFSGSNSGNTATLTISGTQAMDEADYYCQAWDTRAVVFGGGTKLTVLG
